Test [1] addresses T1, human matriptase-2 mask ECD protein his tag (human, UniProt Q8IU80 78-576).
T1 construct: MTP-2 ECD without the serine protease domain, with C-terminal linker and His tag; also called headless huMTP-2 ECD 78-576 aa; headless human MTP-2 ECD
T1 sequence: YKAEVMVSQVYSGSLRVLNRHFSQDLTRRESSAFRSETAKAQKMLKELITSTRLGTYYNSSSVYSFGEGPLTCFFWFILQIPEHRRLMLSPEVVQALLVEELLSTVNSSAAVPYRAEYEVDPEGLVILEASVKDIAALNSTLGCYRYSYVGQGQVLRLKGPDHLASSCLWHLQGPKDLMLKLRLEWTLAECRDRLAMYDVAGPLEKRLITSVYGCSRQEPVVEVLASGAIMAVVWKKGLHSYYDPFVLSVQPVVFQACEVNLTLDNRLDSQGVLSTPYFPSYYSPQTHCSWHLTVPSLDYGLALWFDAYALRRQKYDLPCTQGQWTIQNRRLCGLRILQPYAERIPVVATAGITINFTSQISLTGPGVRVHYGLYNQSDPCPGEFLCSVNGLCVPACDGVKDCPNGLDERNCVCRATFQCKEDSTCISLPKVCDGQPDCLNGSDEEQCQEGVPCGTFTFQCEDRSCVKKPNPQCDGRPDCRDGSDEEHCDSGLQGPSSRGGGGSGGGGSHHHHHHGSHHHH
The experiment in a line: SPR (Table W). On the procedure:
(§1) Off-rate screening was performed by surface plasmon resonance (SPR), using a Biacore 8K system (GE Healthcare). Anti-human Fc mix (˜1000 RU) were immobilised in both active and reference channels in HBS-P+ buffer (GE BR100671) pH 7.4. Anti-MTP-2 hulgG4PE antibodies were then captured for 60 sec at 10 μl/min at 1 μg/ml concentration (approximatively 35 and 50 RU were captured) only on the active channel. MTP-2 ECD protein analytes were then injected (at 100, 25, 6.25, 1.56 and 0 nM concentrations) for 120 sec (association time) at 30 μl/min and dissociation monitored for 600 sec. Multiple cycle kinetics mode was used with all 8 channels being used. Reference and background were subtracted from the sensorgrams for each antibody and data was fitted using a 1:1 interaction model in the Biacore evaluation software. Rmax, ka, kd globally fitted, RI=0.
NORI-011, NORI-008, NORI-003 and NORI-006 were all found to have cross-reactive binding to human, mouse, cyno and rat MTP-2 ECD proteins. […] The true KD value for NORI-008 could not be measured accurately for human or mouse MTP-2 due to a very slow off-rate.

Test [2] deals with T2, human MTP-2 expressed on HEK293 cells (human, UniProt Q8IU80 1-811).
T2 sequence: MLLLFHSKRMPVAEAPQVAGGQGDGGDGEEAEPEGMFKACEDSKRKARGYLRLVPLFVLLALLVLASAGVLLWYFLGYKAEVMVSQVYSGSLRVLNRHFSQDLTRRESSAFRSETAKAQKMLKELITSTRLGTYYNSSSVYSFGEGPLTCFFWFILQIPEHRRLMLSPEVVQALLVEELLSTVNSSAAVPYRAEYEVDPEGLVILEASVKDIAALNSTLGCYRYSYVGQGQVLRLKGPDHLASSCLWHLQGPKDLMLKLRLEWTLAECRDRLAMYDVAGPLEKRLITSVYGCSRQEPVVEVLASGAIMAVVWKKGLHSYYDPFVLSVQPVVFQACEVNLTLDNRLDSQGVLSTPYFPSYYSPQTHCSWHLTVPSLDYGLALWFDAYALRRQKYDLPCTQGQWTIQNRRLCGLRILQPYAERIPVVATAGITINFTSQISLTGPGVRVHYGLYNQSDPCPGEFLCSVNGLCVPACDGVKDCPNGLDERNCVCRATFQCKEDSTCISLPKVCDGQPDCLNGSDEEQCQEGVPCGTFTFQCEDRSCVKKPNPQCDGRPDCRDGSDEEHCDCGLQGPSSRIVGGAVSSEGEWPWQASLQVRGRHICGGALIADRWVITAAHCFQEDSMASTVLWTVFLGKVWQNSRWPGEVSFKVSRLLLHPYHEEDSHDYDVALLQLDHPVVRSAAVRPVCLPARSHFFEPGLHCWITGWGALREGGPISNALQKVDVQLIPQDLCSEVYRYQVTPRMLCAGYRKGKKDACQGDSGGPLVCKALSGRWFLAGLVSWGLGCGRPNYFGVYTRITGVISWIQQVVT
The experiment in a line: cell-based or functional assay.

For test [3], the target named is T1, human matriptase-2 mask ECD protein his …. In words: SPR, antibody captured, headless ECD as analyte. On the procedure:
as §1
Binding was also assessed using the above SPR method with “headless” huMTP-2 ECD 78-576 aa instead of the full ECD. Headless ECD corresponds to the MTP-2 ECD without the serine protease domain.

For test [4], the target named is T3, mouse matriptase-2 ECD protein his tag (mouse, UniProt Q9DBI0 80-811).
T3 construct: aa 80-811 of Q9DBI0 with C-terminal linker and His tag; also called mouse MTP-2 ECD; moMTP-2
T3 sequence: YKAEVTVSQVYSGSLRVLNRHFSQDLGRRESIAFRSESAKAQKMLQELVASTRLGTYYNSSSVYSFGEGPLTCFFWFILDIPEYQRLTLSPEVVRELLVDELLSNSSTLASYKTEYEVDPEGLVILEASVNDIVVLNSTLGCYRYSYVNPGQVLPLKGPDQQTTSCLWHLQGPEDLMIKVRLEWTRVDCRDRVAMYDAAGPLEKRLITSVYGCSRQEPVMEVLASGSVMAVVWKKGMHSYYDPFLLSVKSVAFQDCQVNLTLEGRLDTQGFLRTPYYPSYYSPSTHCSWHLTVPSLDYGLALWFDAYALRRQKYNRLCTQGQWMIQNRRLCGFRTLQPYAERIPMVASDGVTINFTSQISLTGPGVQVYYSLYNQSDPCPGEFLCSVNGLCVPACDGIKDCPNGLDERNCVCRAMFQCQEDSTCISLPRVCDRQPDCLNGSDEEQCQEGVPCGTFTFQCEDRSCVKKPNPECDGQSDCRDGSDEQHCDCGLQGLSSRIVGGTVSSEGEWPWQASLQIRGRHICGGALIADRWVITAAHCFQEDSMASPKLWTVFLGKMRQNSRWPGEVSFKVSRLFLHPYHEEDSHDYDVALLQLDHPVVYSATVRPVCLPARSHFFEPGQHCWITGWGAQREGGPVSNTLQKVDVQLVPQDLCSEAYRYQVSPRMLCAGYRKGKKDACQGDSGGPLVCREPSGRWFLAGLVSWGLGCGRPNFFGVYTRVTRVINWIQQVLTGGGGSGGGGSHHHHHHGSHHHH
The experiment in a line: SPR (Biacore 8K), huIgG4PE captured on anti-human Fc, MTP-2 ECD as analyte, 1:1 fit; off-rate too slow to be determined. As to the method: as §1

Residue numbers refer to the chain shown, from its start. Names and notes keep the numbering of the source.

B1: NORI-008 (antibody, human IgG4 S228P, kappa, V domains shown)
VH: QVQLQESGPGLVKPSETLSLTCSVSGGSVSSGRYYWTWIRQPPGKGLEWIGYISNSGNTNYNPSLKSRVTISLDTSKKQFSLSLSAVTAADTAVYYCARGFIYDYWFDPWGQGSLVTVSS
VL: DSQMTQSPSSLSASVGDRVTITCQASQDIDNYLNWYQQRPGKAPKLLIYDASKLETGVPSRFSGSGSGTDFTFTISSLQPEDFATYYCQQYGNLPITFGQGTRLDIKR
notes: human IgG4PE, kappa, in the in vitro assays; a mouse IgG1 format was used in one in vivo study only; also called NORI-008 hulgG4PE; NORI-008 IgG
As to B1, the binding result in test [1] is recorded as “no binding”. Further, the “Inhibition enzymatic activity human MTP2 on cells (IC50)” value in test [2] is 0.0839 nM.

B2: NORI-013 (antibody, human IgG4 S228P, lambda, V domains shown)
VH: EVQLVESGGGLIQAGRSLRLSCAASGFTFDEHVIYWVRQIPGKGLEWISSISWKSDIIAYADSVKGRFTISRDNAKNALYLQMNSLRAEDTALYYCAREKDGDFYYYYFAMDVWGQGTTVTVSS
VL: QSALTQPPSASGSPGQSVTLSCTGTSSDVGYYNYVSWYLQHPGKAPKLMIYEVSKRPSGVPDRFSGSKSANTASLTVSGLQAEDEADYYCSSYAGSNKVVFGGGTKVTVLG
notes: human IgG4PE, lambda
Consider B2, for which the “Inhibition enzymatic activity human MTP2 on cells (IC50)” value in test [2] stood at 0.619 nM. Moreover, in test [3], the binding result is listed as “no binding (tested: analyte up to 100 nM)”. For the same molecule, in test [4], the koff is at most 1e-05 s⁻¹.

B3: NORI-014 (antibody, human IgG4 S228P, lambda, V domains shown)
VH: B2 VH with I34M, S52T
VL: B2 VL
notes: human IgG4PE, lambda
Regarding B3, in test [2], the “Inhibition enzymatic activity human MTP2 on cells (IC50)” value was 0.532 nM. In addition, the binding result in test [3] is listed as “no binding (tested: analyte up to 100 nM)”. The koff in test [4] is at most 1e-05 s⁻¹.

B4: NORI-006 (antibody, human IgG4 S228P, kappa, V domains shown)
VH: EVQLVESGGGLIKPGRSLRLSCTGSGFTFGDFGLSWFRQAPGKGLEWISFIRSKPYGGTTDYAASVKGRFTISRDDSKNVAYLQMNSLKTEDTAVYYCARNEILTGYYIFDYWGQGTLVTVSS
VL: DIQMTQSPSSLSASLGDRVTITCQASQDINNYLNWYQVQPGKAPKLLIFDASILETGVPSRFSGSGSGTDFSFTISSLQPEDIATYYCQQYDNLPLTFGGGTKVDFKR
notes: human IgG4PE, kappa
For B4, the binding result in test [1] is listed as “no binding”.

B5: NORI-003 (antibody, human IgG4 S228P, kappa, V domains shown)
VH: EVQLVESGGGLVKPGRSLRLSCTGSGFTFGDFGMSWFRQAPGKGLEWVGFIRSKPYGGTTDYAPSVRGRFSISRDDSKGIVYLQMNSLRTEDTAVYYCSRNEILTGYYIFDYWGQGTLVTVSS
VL: B4 VL with Q27H, N30T, N34I, V38Q, Q39K, K45R, S72T, I83F, D92Y, F106I
notes: human IgG4PE, kappa; NORI-002 with the free cysteine of the VH domain mutated (printed as 'C49C')
Turning to B5, the binding result in test [1] was “no binding”.

B6: NORI-011 (antibody, human IgG4 S228P, lambda)
heavy: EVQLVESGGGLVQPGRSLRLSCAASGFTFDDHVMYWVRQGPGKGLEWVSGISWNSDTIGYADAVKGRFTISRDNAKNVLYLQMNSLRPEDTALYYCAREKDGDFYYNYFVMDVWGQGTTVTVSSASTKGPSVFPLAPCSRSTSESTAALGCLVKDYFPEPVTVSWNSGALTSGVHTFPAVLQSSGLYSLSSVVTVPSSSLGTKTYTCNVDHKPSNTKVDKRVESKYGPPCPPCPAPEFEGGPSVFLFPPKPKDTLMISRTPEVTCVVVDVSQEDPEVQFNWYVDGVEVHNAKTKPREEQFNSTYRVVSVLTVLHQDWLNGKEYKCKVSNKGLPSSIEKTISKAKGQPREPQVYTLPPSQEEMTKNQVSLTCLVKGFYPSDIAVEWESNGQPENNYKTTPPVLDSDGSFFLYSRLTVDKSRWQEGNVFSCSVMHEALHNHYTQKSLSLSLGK
light: QSALTQPPSASGSPGQSVTISCTGTSSDVGFYNFVSWYQQHPDKAPKVMIYEVSKRPSGVPDRFSGSKSGNTASLTVSGLQAEDEADYYCSSYAGSNKVVFGGGTKLTVLGQPKAAPSVTLFPPSSEELQANKATLVCLISDFYPGAVTVAWKADSSPVKAGVETTTPSKQSNNKYAASSYLSLTPEQWKSHRSYSCQVTHEGSTVEKTVAPTECS
notes: human IgG4PE, lambda; NORI-010 with a P124S mutation in the VH domain
For B6, the binding result in test [1] is reported as “no binding”.

Values taken from US20230025129A1 (KYMAB, published 2023).
